Data: patent US20180282719A1 (published 2018)

Target: T1, recombinant soluble human IL-6 receptor (SR344) (human, UniProt P08887 20-344, biotinylated (sites not given) where immobilized via streptavidin or used in phage ELISA)
T1 construct: also called soluble IL-6 receptor; membrane-type IL-6 receptor (when biotinylated and immobilized on the chip)
T1 sequence (looked up): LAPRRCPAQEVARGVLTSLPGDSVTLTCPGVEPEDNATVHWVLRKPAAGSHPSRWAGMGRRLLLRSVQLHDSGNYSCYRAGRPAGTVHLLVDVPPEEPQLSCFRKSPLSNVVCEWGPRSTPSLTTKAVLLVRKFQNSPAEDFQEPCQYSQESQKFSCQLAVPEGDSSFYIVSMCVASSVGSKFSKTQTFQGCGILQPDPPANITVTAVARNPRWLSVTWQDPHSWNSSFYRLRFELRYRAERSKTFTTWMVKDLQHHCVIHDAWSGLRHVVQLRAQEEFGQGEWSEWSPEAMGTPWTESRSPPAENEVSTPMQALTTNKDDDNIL
Experiment: SPR Biacore T100, antibody captured by anti-IgG gamma chain F(ab)2, SR344 analyte, pH 7.4, 37 C
Procedure: Kinetic analyses of antigen-antibody reactions at pH 7.4 were carried out on the four types of antibodies, i.e., the humanized PM1 antibody (wild type: WT), and […], H3pI/L73-IgG1, Fv2-IgG1, and Fv4-IgG1 constructed in Examples 2 and 10, by using a Biacore T100™ surface plasmon resonance system (GE Healthcare) (buffer: 10 mM MES (pH 7.4), 150 mM NaCl, 0.05% TWEEN® 20 (polyoxyethelene sorbitan monolaurate)). Each antibody was bound on a sensor chip on which an anti-IgG γ chain specific F(ab)₂ (Pierce) was immobilized by amine coupling, and then, SR344 adjusted to a concentration of 9.8 to 40 nM was injected thereto as an analyte. The association to and dissociation from SR344 were observed on a real-time basis for the pH-dependent-binding clones. All the measurements were carried out at 37° C. Association rate constants kₐ (1/Ms) and dissociation rate constants kd (1/s) were calculated using Biacore T100™ Evaluation Software (GE Healthcare), and dissociation constants KD (M) were calculated on the basis of those values (Table 7).
The association to and dissociation from SR344 were observed on a real-time basis using the same method as Example 10 for the eleven types of antibodies, humanized PM1 antibody (wild type: WT) and H3pI/L73-IgG1, Fv1-M71, Fv1-M73, Fv2-IgG1, Fv3-M71, Fv3-M73, Fv4-IgG1, Fv4-IgG2, Fv4-M58, and Fv4-M73, constructed as described above. The association rate constants kₐ (1/Ms) and dissociation rate constants kd. (1/s) were calculated by analysis in the same manner, and the dissociation constants KD (M) were calculated on the basis of those values (Table 11).

- Kd: 1.4 nM
- koff: 0.001 s⁻¹
- kon: 720000 M⁻¹ s⁻¹
B1: Fv4-IgG1 (antibody)
heavy: not shown
light: DIQMTQSPSSLSASVGDSVTITCQASTDISSHLNWYQQKPGKAPELLIYYGSHLLSGVPSRFSGSGSGTDFTFTISSLEAEDAATYYCGQGNRLPYTFGQGTKVEIERTVAAPSVFIFPPSDEQLKSGTASVVCLLNNFYPREAKVQWKVDNALQSGNSQESVTEQDSKDSTYSLSSTLTLSKADYEKHKVYACEVTHQGLSSPVTKSFNRGEC
notes: VH3-IgG1 / VL3-CK
